Source: patent US20240084003A1 (SIMCERE ZAIMING PHARMACEUTICAL, published 2024)
Where two headings read alike, the source gives them in different places.

T1: monkey CD22 on HEK293T-monkey CD22 cells (monkey)
T1 construct: full-length entry expressed on stably transfected HEK293T cells
T1 chain: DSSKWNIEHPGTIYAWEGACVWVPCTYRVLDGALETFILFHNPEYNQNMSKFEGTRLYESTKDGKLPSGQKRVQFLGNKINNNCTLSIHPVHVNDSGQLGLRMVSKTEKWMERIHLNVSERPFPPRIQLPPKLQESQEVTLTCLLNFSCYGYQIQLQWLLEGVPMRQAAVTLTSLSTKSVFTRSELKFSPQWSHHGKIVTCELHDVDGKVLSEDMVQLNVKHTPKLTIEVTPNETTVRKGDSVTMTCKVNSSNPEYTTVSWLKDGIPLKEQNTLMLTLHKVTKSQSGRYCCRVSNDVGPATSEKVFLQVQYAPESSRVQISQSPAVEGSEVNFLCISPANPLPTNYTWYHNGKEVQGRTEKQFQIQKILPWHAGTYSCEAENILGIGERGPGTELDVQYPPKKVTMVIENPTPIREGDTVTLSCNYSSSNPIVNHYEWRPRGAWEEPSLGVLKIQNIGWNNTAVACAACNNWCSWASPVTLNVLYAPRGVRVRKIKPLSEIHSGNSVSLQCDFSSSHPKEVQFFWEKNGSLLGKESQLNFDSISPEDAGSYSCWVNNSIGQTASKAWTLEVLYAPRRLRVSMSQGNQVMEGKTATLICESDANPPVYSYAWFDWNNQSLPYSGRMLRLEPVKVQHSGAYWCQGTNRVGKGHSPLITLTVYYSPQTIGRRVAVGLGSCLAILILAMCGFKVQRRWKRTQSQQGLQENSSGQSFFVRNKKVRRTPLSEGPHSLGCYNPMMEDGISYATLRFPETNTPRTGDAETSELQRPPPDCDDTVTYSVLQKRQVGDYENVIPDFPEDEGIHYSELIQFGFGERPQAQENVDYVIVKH


Columns and labels:
[1] = molecular target: T1, monkey CD22 on HEK293T-monkey CD22 cells; assay: FACS, HEK293T-monkey CD22 cells
Procedure: (§1) For suspension cell Raji, the medium supernatant was directly centrifuged and discarded, and the cell pellet was washed 2 times with PBS. After counting the cells in the previous step, the cell pellet was resuspended with [PBS+2% (w/w) BSA] blocking solution to 2×10⁶ cells/ml, and added to a 96-well FACS reaction plate at 50 μl/well, and then the chimeric antibody test sample was added at 50 μl/well, and incubated on ice for 2 hours. The mixture was centrifuged and washed 3 times with PBS buffer, Alexa Flour 488-labeled secondary antibody (purchased from Invitrogen, catalog number: A-11013) was added at 50 μl/well, and incubated on ice for 1 hour. The obtained mixture was centrifuged and washed 5 times with PBS, and FACS (FACS Canto™, purchased from BD Company) was used for detection and result analysis. Data analysis was performed by software (CellQuest) to obtain the mean fluorescence density (MFI)of the cells. And then software (GraphPad Prism8) was used for analysis, data fitting, and EC50 value calculation. […] The same method was used to detect the binding of the chimeric antibodies to endogenous CD22-negative cell MoLT4 cells (purchased from ATCC, CRL-1582) and CHO-K1 cells.
(§2) HEK293T-monkey CD22 cells were subjected to FACS detection and data analysis according to the method in Example 5.2.

[2] = molecular target: T1, monkey CD22 on HEK293T-monkey CD22 cells; assay: FACS, HEK293T-monkey CD22 cells
Procedure: as §1, §2

| Binder | EC50 [1] | Maximum mean fluorescence intensity [1] | EC50 [2] | Maximum mean fluorescence intensity [2] |
| --- | --- | --- | --- | --- |
| F1.231.15 (antibody, IgG1, V domains shown, human-murine chimeric IgG1 kappa) VH: QVQLQQPGAELVKPGASVKLSCKTSGYTFTIYWMQWVKQRPGRGLEWIGRIDPHSGDTHYNENFTTKVTLTVDETSNTAYMHLSGLTSEDSAVYYCARRDYSYYVLDYWGQGTSVTVSS VL: DVVLTQTPLSLPVSLGDQASISCRSSQSLVHINGDTYLHWYLQKPGQSPKLLIYTVFNRFSGVPDRFSGSGSGTDFTLKISRVEAEDLGAYFCSQSTHVPYTFGGGTKLEIKR | 12.3 nM | 9250 MFI | – | – |
| F1.105.11 (antibody, human IgG1, kappa, V domains shown, human-murine chimeric IgG1 kappa; VL name legible) VH: EVQLQQSGPVLVKPGASVKMSCKASGYTFSDYFMNWVKQSHGKSLEWIGIINSYSGGTSYNQKFKGKATLTVDKSSSTAYMELNSLTSEDSAVYYCARWMDYWGQGTSVTVSS VL: DVQITQSPSYLAASPGETITINCRTSESISKHLAWYQEKPGKTNKLLIYSGSTLQSGIPSRFSGSGSGTDFTLTISSLEPEDFAMYYCQQHNEYPWTFGGGTKLEIKR | 1.3 nM | 7530 MFI | – | – |
| F1.267.9 (antibody, human IgG1, kappa, V domains shown, human-murine chimeric IgG1 kappa; VL name legible) VH: EVQLQQSGPVLVKPGASVKMSCKASGYTFTDFYMNWAKQSHGKSLEWVGVINPYNGGINYNQKFKGKATLTVDKSSSTAYMEFNSLTSEDSAVYYCARRMEYHAMDYWGQGTSVTVSS VL: DIVLTQSPASLAVSLGQRATISCRASESVDNYGFDFIHWYQQKPGQPPKLLIYRASNLESGIPARFSGSGSRPDFTLTINPVETDDVATYYCQQSIKDPWTFGGGTKLEIKR | 1.15 nM | 15300 MFI | – | – |
| F1.7.6 (antibody, human IgG1, kappa, V domains shown, human-murine chimeric IgG1 kappa; VL name legible) VH: EIQLQQSGPELVKPGTSVKVSCKASGYDFTRYNMYWVKQSHGKSLEWIGYIDPYNGDTRYNQKFKGKATLTVDKSSSTAYMHLNSLTSEDSAVYYCEAIYYDMEGYALDYWGQGTSVTVSS VL: DIVMSQSPSSLAVSVGEKVTMSCKSSQSLLYSNNQKNYLAWYQQKPGQSPKKLIYWASTRESGVPDRLTGSGSGTDFTLTISSVTAEDLAVYYCQQFYSYPWTFGGGTKLEIKR | 2.22 nM | 9220 MFI | – | – |
| F1.224.1 (antibody, human IgG1, kappa, V domains shown, human-murine chimeric IgG1 kappa; VL name legible) VH: EVLLHQSGPELVKPGASVKISCKASGYTFTDFNMDWVRQRHGQSLEWIGDVNPNNGGTIYNQKFKGKATLTVDKSSSTVYMDLRSLTSDDTAVYYCVRLGTSDYGEAWFISWGQGTVVTVSA VL: DIVLTQSPASLAVSLGQRATISCRASQSVSTPRYSFMHWYQQKPGQPPKLLIKYASNLESGFPARFTGSGSGTDFTLNIHPVEEEDTAAYYCQQSWAIPWTFGGGTKLEIKR | 0.79 nM | 16300 MFI | – | – |
| F1.250.16 (antibody, human IgG1, kappa, V domains shown, human-murine chimeric IgG1 kappa; VL name legible) VH: QVQLQQSGAEQVKPGASVKMSCKASGYTFTTYPIEWMKQNHGESLDWIGNIHPYNDDTEYNEKFKGKATLTVEKSSNTVFLELSRLTSDDSAVYYCVRGDYYNSRYWYFDVWGTGTTVTVSS VL: DIVMTQSQKFMSTTVGDRVSITCKAGQNVRTAVAWYQQKPGQSPKLLIYSASTRYIGVPERFTGSGSGTDFTLTITNMQSEDLADYFCQQYSSFPLTFGTGTKLELKR | 0.31 nM | 19700 MFI | – | – |
| F1.120.15 (antibody, human IgG1, kappa, V domains shown, human-murine chimeric IgG1 kappa) VH: QVQLQQSGPELVKPGASVKISCKASGNAFSNSWMNWVKQRPGKGLEWIGRVYSEDGDTQYNGKFRDKATLTADRSTSTAYMQLSSLTSEDSAVYFCARWLIYYGTYGAMDYWGQGTSVTVSS VL: DIQMTQTTSSLSASLGDRVTISCRASQDINNYLNWYHQKPDGTVKLLIYFTSRPYSGVPSRFSGSGSGTDYSLTISNLEQEDIATYFCQQGNTLPWTFGGGTKLEIKR | 0.95 nM | 13600 MFI | – | – |
| F1.216.2 (antibody, human IgG1, kappa, V domains shown, human-murine chimeric IgG1 kappa) VH: QVQLQQSGPEVVRPGASVKISCKASGYAFSSSWMNWMKQRPGKALEWIGRIYPGDGDTNYSGEFKVKATLTADKSSSTAYMQLSSLTSEDSAVYFCAREGSYYSNPWYFDYWGQGTTLTVSS VL: DVLVTQTPLSLPVSLGDQASISCRSSQSIVQSNGDTYLEWYLQKPGQSPKLLIYKVSNRFSGVPDRFSGSGSGTDFTLKISRVEAEDLGVYYCFQGSHVPFTFGSGTKLEIKR | 0.26 nM | 13900 MFI | – | – |
| F1.200.11 (antibody, human IgG1, kappa, V domains shown, human-murine chimeric IgG1 kappa) VH: QNQLVQSGPELKKPGETVKISCKASGYTFTTAGMQWVQKMPGKGFKWIGWINTLSGEPKYAEDFKGRFAFSLETSATTAYLQISNLKNEDTATYFCARAYYSNLYWYFDVWGTGTTVTVSS VL: DIVMTQSQKFMSTTVGDRVTITCKASQNVVTAVAWYQQKPGQSPKVLIYSASNRYSGVPDRFTGSGSGTDFTLTISNMHSEDLANYFCHQYSSYPFTFGSGTKLEIKR | 4.32 nM | 16200 MFI | – | – |
| F1.192.1 (antibody, human IgG1, kappa, V domains shown, human-murine chimeric IgG1 kappa) VH: AVQLQQSGVELVRPGASVKLSCTGSDFNIKEDYIHWVKQRPEQGLEWIGWIDPENGDTEYASKFQGKATITADTSSNTAYLQLSSLTSEDTAVYYCATYGSLDYWGQGTTLTVSS VL: DIKMTQSPSSMYAFLGERVTITCKASQGINSFLTWFQQKPGKSPKTLIYRANRLVDGVPSRFSGSGSGQDYSLTISSLEYEDVGIYYCLQYDEFPRTFGGGTKLEIKR | 0.62 nM | 16300 MFI | – | – |
| F1.172.13 (antibody, human IgG1, kappa, V domains shown, human-murine chimeric IgG1 kappa) VH: QVTLKESGPGILQSSQTLSLTCSFSGFSLSTSGMGVSWIRQPSGKGLEWLAHIYWDDDKRYNPSLKSRLTISKDTSRNQVFLKITSVDTADTATYYCARAPPPNWDEYYFDYWGQGTTLTVSS VL: DIQMTQSPASLSASVGETVTITCRASGNIHNSLAWYQQKQGKSPQLLVHNAKTLADGVPSRFSGSGSGTQYSLKINSLQPEDFGSYYCQHFWSTPPFGGGTKLEIKR | 0.47 nM | 19000 MFI | – | – |
| F1.17.1 (antibody, human IgG1, kappa, V domains shown, human-murine chimeric IgG1 kappa) VH: QVQLKESGPGLVAPSQSLSITCTVSGFSLSRYTVHWVRQPPGKGLEWLGMIWGGGSTDYNSALKSRLSISKDNSKSQVFLKMNSLQTDDTAMYYCARPHDFDAGGFAYWGQGTLVTVSA VL: QIVLTQSPAILSTSPGEKVTMTCSASSRVNYMYWYQQKPGSSPRLLIYDTSNLASGVPVRFSGSGSGTSYSLTISRMEAEDAATYYCQQWTSYPLTFGAGTKLELKR | 0.38 nM | 17200 MFI | – | – |
| F1.62.10 (antibody, human IgG1, kappa, V domains shown, human-murine chimeric IgG1 kappa) VH: QVQLQQSGPELVKPGASVKISCKASGYEFSSIWMNWVKQRPGEGLEWIGRIFPGDGEINYNEKFKGKATLTADRSSTTAYMQLSSLTSEDSAVYFCAGWRIYYGTYGAMDYWGQGTSVTVSS VL: DIQMTQITSSLSASLGDRVTISCRASQDIGNYLNWYQQKPDGTVKLLIYYTSRLHSGVPSRFSGSGSRTDYSLTISNLQQEDIATYFCQQGNTLPWTFGGGTKLEIKR | 41.1 nM | 4330 MFI | – | – |
| F2.121.9 (antibody, human IgG1, lambda, V domains shown, human-murine chimeric IgG1 lambda) VH: EVQLVESGGGLVKPGGSLKLSCAASGFTFSDYVMSWIRQTPEKRLEWVATISDAGSYTFYPDNLKGRFTISRDNAKNNLYLQMNHLTSEDTAFYYCAIIYFGNYGGYWGQGTLVTVSV VL: QAVVTQESALTTSPGGTVVLTCRSNTGAVTTSNYANWVQEKPDHLFTGLIGGTSNRAPGVPVRFSGSLIGDKAALTITGAQTEDDAMYFCALWYSTHWVFGGGTKLTVLG | – | – | 0.97 nM | 19900 MFI |
